In the supplement of paper PMC9233669:
This sample holds only a part of the variants without activity.

What was measured:
biotinyl-Phe-oxazolone = assay: self-aminoacylation, catalytic enhancement (BFO) (fold over background); higher = more active; k-Seq, kA / k0A0; sequences stand for … in GGGAAUGGAUCCACAUCUACGAAUUC…UUCACUGCAGACUUGACGAAGCUG
Method in brief: (§1)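 Catalytic enhancement equals the median kA over the uncatalyzed rate, the latter read from the low-activity peak of a bimodal Gaussian fit. Values of kA came from fitting each sequence's fraction reacted to a pseudo-first-order model, with 1000 bootstraps. Reacted RNA was captured with streptavidin and quantified by triplicate qPCR and Illumina sequencing after 90 minutes at room temperature with 2–1250 μM biotinyl-aminoacyl-oxazolone and 0.43 μM mutagenized RNA pools bearing a 21-nt variable region.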

biotinyl-Leu-oxazolone = assay: self-aminoacylation, catalytic enhancement (BLO) (fold over background); higher = more active; k-Seq, kA / k0A0; sequences stand for … in GGGAAUGGAUCCACAUCUACGAAUUC…UUCACUGCAGACUUGACGAAGCUG
Method in brief: as §1

biotinyl-Trp-oxazolone = assay: self-aminoacylation, catalytic enhancement (BWO) (fold over background); higher = more active; k-Seq, kA / k0A0; sequences stand for … in GGGAAUGGAUCCACAUCUACGAAUUC…UUCACUGCAGACUUGACGAAGCUG
Method in brief: as §1

biotinyl-Ile-oxazolone = assay: self-aminoacylation, catalytic enhancement (BIO) (fold over background); higher = more active; k-Seq, kA / k0A0; sequences stand for … in GGGAAUGGAUCCACAUCUACGAAUUC…UUCACUGCAGACUUGACGAAGCUG
Method in brief: as §1

biotinyl-Met-oxazolone = assay: self-aminoacylation, catalytic enhancement (BMO) (fold over background); higher = more active; k-Seq, kA / k0A0; sequences stand for … in GGGAAUGGAUCCACAUCUACGAAUUC…UUCACUGCAGACUUGACGAAGCUG
Method in brief: as §1

biotinyl-Val-oxazolone = assay: self-aminoacylation, catalytic enhancement (BVO) (fold over background); higher = more active; k-Seq, kA / k0A0; sequences stand for … in GGGAAUGGAUCCACAUCUACGAAUUC…UUCACUGCAGACUUGACGAAGCUG
Method in brief: as §1

| Sequence | self-aminoacylation (biotinyl-Phe-oxazolone) | self-aminoacylation (biotinyl-Leu-oxazolone) | self-aminoacylation (biotinyl-Trp-oxazolone) | self-aminoacylation (biotinyl-Ile-oxazolone) | self-aminoacylation (biotinyl-Met-oxazolone) | self-aminoacylation (biotinyl-Val-oxazolone) |
| --- | --- | --- | --- | --- | --- | --- |
| GUACUUCAAACAAUCGGUCUU [Fam1A.1 aminoacylation ribozyme variant] | 12.8 | 1.49 | 12 | 1.43 | 1.14 | 1.3 |
| GUACUUCAAACAAUCGUUCUG [Fam1A.1 aminoacylation ribozyme variant] | 2.04 | 0.972 | 2.37 | 1.15 | 0.889 | 1.13 |
| GUACUUCAAACAAUUGGUCUG [Fam1A.1 aminoacylation ribozyme variant] | 1.82 | 1.34 | 1.75 | 1.36 | 1.18 | 1.16 |
| GUACUUCAAACUAUCGGUCUG [Fam1A.1 aminoacylation ribozyme variant] | 1.78 | 1.14 | 1.46 | 1.38 | 1.29 | 1.26 |
| GUACUUCAACCAAUCGGUCUG [Fam1A.1 aminoacylation ribozyme variant] | 16.5 | 1.59 | 15.1 | 1.39 | 1.39 | 1.28 |
| GUGCACCUAGGUCAUCGGGUG [Fam2.2 aminoacylation ribozyme variant] | 26.8 | 3.9 | 6.04 | 3.96 | 3.85 | 4.64 |
| GUUACCCUGGCCAUCGAGUGA [Fam2.1 aminoacylation ribozyme variant] | 43.7 | 8.07 | 9.03 | 4.06 | 6.73 | 5 |
| GUUACCCUGGUCAACGAGUGA [Fam2.1 aminoacylation ribozyme variant] | 42.7 | 6.2 | 6.61 | 3.72 | 5.98 | 3.22 |
| GUUACCCUGGUCAUCGAGGGA [Fam2.1 aminoacylation ribozyme variant] | 4.93 | 4.18 | 5.33 | 3.06 | 5.05 | 2.7 |
| GUUACCCUGGUUAUCGAGUGA [Fam2.1 aminoacylation ribozyme variant] | 57.6 | 11.8 | 13 | 5.48 | 11.6 | 5.74 |
| GUUACUCUGGUCAUCGAGUGA [Fam2.1 aminoacylation ribozyme variant] | 32.9 | 7.08 | 9.78 | 4.98 | 6.92 | 4.18 |
| GUUCACCAAGGUCAUCGGGUG [Fam2.2 aminoacylation ribozyme variant] | 64.7 | 8.83 | 6 | 4.16 | 6.5 | 4.45 |
| GUUCACCGAGGUCAUCGGGUG [Fam2.2 aminoacylation ribozyme variant] | 55.9 | 8.58 | 7.43 | 4.56 | 6.57 | 4.56 |
| GUUCACCUACGUCAUCGGGUG [Fam2.2 aminoacylation ribozyme variant] | 31 | 5.15 | 4.3 | 3.26 | 4.35 | 3.69 |
| GUUCACCUAGGUAAUCGGGUG [Fam2.2 aminoacylation ribozyme variant] | 9.25 | 2.92 | 3.83 | 2.38 | 2.74 | 2.12 |
| GUUCACCUAGGUCAGCGGGUG [Fam2.2 aminoacylation ribozyme variant] | 26.1 | 4.21 | 4.42 | 2.92 | 4.02 | 3.23 |
| GUUCACCUAGGUCAUCAGGUG [Fam2.2 aminoacylation ribozyme variant] | 2.03 | 1.32 | 1.06 | 1.23 | 1.09 | 1.35 |
| GUUCACCUAGGUCAUCGAGUG [Fam2.2 aminoacylation ribozyme variant] | 27.6 | 15.7 | 6.52 | 8.09 | 11.4 | 6.89 |
| GUUCACCUAGGUCAUCGCGUG [Fam2.2 aminoacylation ribozyme variant] | 96.1 | 15 | 10.6 | 6.72 | 10.5 | 6.96 |
| GUUCACCUAGGUCAUCGGCUG [Fam2.2 aminoacylation ribozyme variant] | 7.17 | 2.04 | 1.97 | 1.67 | 1.49 | 1.98 |
| GUUCACCUAGGUGAUCGGGUG [Fam2.2 aminoacylation ribozyme variant] | 21 | 4.25 | 4.84 | 3.88 | 3.88 | 3.88 |
| GUUCACCUAUGUCAUCGGGUG [Fam2.2 aminoacylation ribozyme variant] | 21.4 | 5.63 | 4.3 | 3.1 | 4.03 | 3.31 |
| GUUCAGCUAGGUCAUCGGGUG [Fam2.2 aminoacylation ribozyme variant] | 25 | 5.08 | 5.82 | 3.97 | 3.72 | 4.11 |
| GUUCGCCUAGGUCAUCGGGUG [Fam2.2 aminoacylation ribozyme variant] | 121 | 22.8 | 14.9 | 9.85 | 18.9 | 10.2 |
| GUUCUUCAAACAAUCGGUCUG [Fam1A.1 aminoacylation ribozyme variant] | 3.63 | 0.983 | 2.39 | 0.863 | 1 | 0.824 |
